Reference: the supplement of paper PMC7877785
± gives the uncertainty stated by the source.

Experiment: self-splicing fitness, log relative to wild type (ln ratio); higher = more splicing; Tetrahymena group I intron in knt gene, E. coli kanamycin selection, DiMSum; sequences stand for … in CUCUCU…GGAGGGAAAAGUUAUCAGGCAUGCACCUGGUAGCUAGUCUUUAAACCAAUAGAUUGCAUCGGUUUAAAAGGCAAGACCGUCAAAUUGCGGGAAAGGGGUCAACAGCCGUUCAGUACCAAGUCUCAGGGGAAACUUUGAGAUGGCCUUGCAAAGGGUAUGGUAAUAAGCUGACGGACAUGGUCCUAACCACGCAGCCAAGUCCUAAGUCAACAGAUCUUCUGUUGAUAUGGAUGCAGUUCACAGACUAAAUGUCGGUCGGGGAAGAUGUAUUCUUCUCAUAAGAUAUAGUCGGACCUCUCCUUAAUGGGAGCUAGCGGAUGAAGUGAUGCAACACUGGAGCCGCUGGGAACUAAUUUGUAUGCGAAAGUAUAUUGAUUAGUUUUGGAGUACUCGUGGUCG
Summary of the method: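 The eight P1ex-region nucleotides of an intron in the knt kanamycin-resistance gene on pET-22b(+) were all randomised and the library put into E. coli BL21(DE3). Six replicate transformations were grown overnight at 37°C or 30°C on LB agar with or without 25 μg/mL kanamycin, together with 100 μg/mL carbenicillin, 50 μM IPTG and 0.2% rhamnose. Colonies were pooled and amplicon-sequenced on an Illumina HiSeq 2500. Fitness from DiMSum is the error-weighted combination of wild-type-normalised replicate fold changes, kanamycin over none.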

Sequence | self-splicing fitness (ln) (30 °C) | self-splicing fitness (ln) (37 °C)
CCGUAGCAAUAUUACGUCGG | -3.57 ± 0.17 | -3.02 ± 0.23
UUGGAGCAAUAUUACGGGCU |  | -2.95 ± 0.34
UCCCAGCAAUAUUACGUUUA | -2.21 ± 0.12 | -1.79 ± 0.13
UGAUAGCAAUAUUACGGGAG | -3.64 ± 0.29 | -2.19 ± 0.21
GCUAAGCAAUAUUACGCCCG | -0.889 ± 0.11 | -0.34 ± 0.17
AAGAAGCAAUAUUACGAACA | -1.06 ± 0.16 | -0.0339 ± 0.16
UAACAGCAAUAUUACGGUCG | -0.363 ± 0.04 | -0.0859 ± 0.056
GAGCAGCAAUAUUACGCCAU | -2.67 ± 0.46 | -3.33 ± 0.43
UUCUAGCAAUAUUACGUCGC | -3.18 ± 0.44 | 
CUAAAGCAAUAUUACGUGAA | -3.29 ± 0.23 | -3.36 ± 0.32
UUGGAGCAAUAUUACGCGAA |  | -1.4 ± 0.29
AGUUAGCAAUAUUACGUUUU | -3.11 ± 0.18 | -1.41 ± 0.15
CUAGAGCAAUAUUACGCUAU |  | -2.47 ± 0.48
CGCCAGCAAUAUUACGUCGG | -3.04 ± 0.21 | -1.91 ± 0.21
UGGCAGCAAUAUUACGUCUG | -1.31 ± 0.082 | -0.936 ± 0.11
GGGUAGCAAUAUUACGCGGG | -2.2 ± 0.26 | -2.42 ± 0.23
CAAAAGCAAUAUUACGUCUG | -0.838 ± 0.042 | -0.0271 ± 0.052
UUAAAGCAAUAUUACGAUAU | -1.05 ± 0.11 | -0.358 ± 0.13
UGCCAGCAAUAUUACGGACG | -0.337 ± 0.06 | -0.0244 ± 0.076
ACGAAGCAAUAUUACGGCCA | -0.778 ± 0.091 | 0.402 ± 0.095
CGGUAGCAAUAUUACGCUCG |  | -2.91 ± 0.43
AAGAAGCAAUAUUACGAUGC | -2.61 ± 0.13 | -1.76 ± 0.17
CGAUAGCAAUAUUACGAGGG | -2.4 ± 0.15 | -2.14 ± 0.26
AAUGAGCAAUAUUACGGGAU | -4.32 ± 0.28 | -3.09 ± 0.29
CACGAGCAAUAUUACGUUCA | -2.99 ± 0.18 | -2.49 ± 0.24

Sequence | self-splicing fitness (ln) (30 °C) | self-splicing fitness (ln) (37 °C)
CUGUAGCAAUAUUACGUUGG | -3.56 ± 0.13 | -1.46 ± 0.11
GUGGAGCAAUAUUACGUAGU | -2.93 ± 0.24 | -0.993 ± 0.27
CGUCAGCAAUAUUACGUCAG | -0.465 ± 0.069 | 0.175 ± 0.083
AGCCAGCAAUAUUACGGCGA | -1.33 ± 0.095 | -0.342 ± 0.11
UUUUAGCAAUAUUACGAGGG | -2.9 ± 0.42 | 
GAAAAGCAAUAUUACGGACU | 0.147 ± 0.069 | 0.272 ± 0.087
AUUGAGCAAUAUUACGUACU | -2.1 ± 0.28 | -2.57 ± 0.49
UGAUAGCAAUAUUACGCGUG | -1.18 ± 0.072 | -0.0417 ± 0.078
UACUAGCAAUAUUACGAGAA | -1.6 ± 0.33 | -0.769 ± 0.22
CCUUAGCAAUAUUACGGAGA | -3.46 ± 0.37 | -2.41 ± 0.42
CAGAAGCAAUAUUACGGCGG | -0.0667 ± 0.084 | -0.292 ± 0.12
CCCCAGCAAUAUUACGGUUA | -3.5 ± 0.17 | -2.61 ± 0.13
AUUGAGCAAUAUUACGUAGU | -2.08 ± 0.17 | -0.638 ± 0.14
GGCAAGCAAUAUUACGGUCA | -0.571 ± 0.09 | 0.329 ± 0.096
UUUGAGCAAUAUUACGAAGA | -2.31 ± 0.44 | -1.55 ± 0.38
GGAGAGCAAUAUUACGAGAC | -2.12 ± 0.22 | -1.88 ± 0.35
UGUCAGCAAUAUUACGAACU | -0.744 ± 0.086 | -0.0942 ± 0.086
GCAAAGCAAUAUUACGGGCC | -2.74 ± 0.13 | -2.03 ± 0.21
UACAAGCAAUAUUACGUAUA | -2.22 ± 0.13 | -0.891 ± 0.12
UCAGAGCAAUAUUACGGCUA | -2.46 ± 0.28 | -2.11 ± 0.24
CUUCAGCAAUAUUACGUGGC | -2.61 ± 0.23 | -2.08 ± 0.43
UCGCAGCAAUAUUACGUGGA | -1.93 ± 0.11 | -1.57 ± 0.084
UAGCAGCAAUAUUACGUGGG | -3.61 ± 0.11 | -2.42 ± 0.13
GAGCAGCAAUAUUACGCUCC | -2.25 ± 0.35 | -0.34 ± 0.38
ACCGAGCAAUAUUACGCUAC | -3.58 ± 0.19 | -2.86 ± 0.24

Sequence | self-splicing fitness (ln) (30 °C) | self-splicing fitness (ln) (37 °C)
AGGAAGCAAUAUUACGCCAA | -1.65 ± 0.35 | -1.5 ± 0.31
AAACAGCAAUAUUACGAAUC | -4.43 ± 0.46 | -1.54 ± 0.22
CACAAGCAAUAUUACGUACG | -0.467 ± 0.063 | 0.449 ± 0.083
CGCUAGCAAUAUUACGCACC | -1.98 ± 0.18 | -1 ± 0.23
GCCCAGCAAUAUUACGUUCC | -1.28 ± 0.096 | -0.603 ± 0.14
AUUAAGCAAUAUUACGACCU | -0.144 ± 0.17 | 0.145 ± 0.18
CGCGAGCAAUAUUACGCGUA | -2.59 ± 0.37 | -2.52 ± 0.28
CGGUAGCAAUAUUACGCCCA | 0.153 ± 0.1 | 0.145 ± 0.17
CGCAAGCAAUAUUACGGUGG | -0.599 ± 0.064 | -0.2 ± 0.079
CCGCAGCAAUAUUACGAGGC | -3.72 ± 0.19 | -2.65 ± 0.23
CAGGAGCAAUAUUACGUGGU | -4.08 ± 0.23 | -3.15 ± 0.23
GGAUAGCAAUAUUACGAACU | -0.708 ± 0.15 | -0.573 ± 0.19
UGCAAGCAAUAUUACGGUGG | -2.3 ± 0.074 | -1.21 ± 0.085
CGUUAGCAAUAUUACGCAGA | -3.21 ± 0.41 | -2.31 ± 0.23
GCCGAGCAAUAUUACGCUCA | -0.335 ± 0.17 | -0.829 ± 0.21
AAAGAGCAAUAUUACGGCAG | -4.02 ± 0.42 | -3.07 ± 0.29
AUGAAGCAAUAUUACGCGAC | -2.1 ± 0.15 | -1.96 ± 0.27
CCCGAGCAAUAUUACGGCGA | -2.7 ± 0.2 | -1.19 ± 0.12
GAUUAGCAAUAUUACGAGCC | -0.73 ± 0.31 | -1.4 ± 0.38
GGCCAGCAAUAUUACGACCG | -1.21 ± 0.11 | -0.323 ± 0.14
ACGUAGCAAUAUUACGUUGG | -4.55 ± 0.31 | -2.85 ± 0.25
GUCUAGCAAUAUUACGCUCG | -0.688 ± 0.23 | -0.634 ± 0.27
GGGUAGCAAUAUUACGCAUA |  | -0.676 ± 0.24
GGGGAGCAAUAUUACGUCUU | -1.91 ± 0.12 | -0.96 ± 0.18
AUUAAGCAAUAUUACGACUA | -1.05 ± 0.12 | -0.207 ± 0.15

Sequence | self-splicing fitness (ln) (30 °C) | self-splicing fitness (ln) (37 °C)
AAGUAGCAAUAUUACGAAUG | -3.14 ± 0.24 | -1.72 ± 0.14
AUGUAGCAAUAUUACGUCAA | -2.9 ± 0.3 | -2.98 ± 0.35
AGGAAGCAAUAUUACGACCC | -0.677 ± 0.23 | -1.73 ± 0.26
CUAGAGCAAUAUUACGCAGU | -2.58 ± 0.12 | -3.17 ± 0.2
ACUCAGCAAUAUUACGCAAA | -2.02 ± 0.12 | -0.838 ± 0.11
CGGCAGCAAUAUUACGCACC | -2.89 ± 0.17 | -2.05 ± 0.23
CAAGAGCAAUAUUACGGGCA | -2.96 ± 0.24 | -1.79 ± 0.23
UUGGAGCAAUAUUACGGUUU | -3.38 ± 0.31 | -2.9 ± 0.47
CGUAAGCAAUAUUACGGAGG | -2.16 ± 0.14 | -1.57 ± 0.17
CCUUAGCAAUAUUACGGGUC | -4.43 ± 0.3 | -2.86 ± 0.38
CGGAAGCAAUAUUACGGGUC | -3.78 ± 0.19 | -2.59 ± 0.21
ACCAAGCAAUAUUACGAAAA | -3.44 ± 0.2 | -2.91 ± 0.23
UCUAAGCAAUAUUACGAAGG | -2.53 ± 0.15 | -0.99 ± 0.16
GACAAGCAAUAUUACGCGAG | -1.25 ± 0.11 | -2.03 ± 0.15
GAUUAGCAAUAUUACGCUAU | -2.97 ± 0.41 | 
GCCUAGCAAUAUUACGUAGC | -0.323 ± 0.11 | -0.445 ± 0.11
AGCAAGCAAUAUUACGGCCC | 0.104 ± 0.19 | -0.363 ± 0.28
CGCAAGCAAUAUUACGUGGU | -3.75 ± 0.17 | -3.22 ± 0.19
AUUCAGCAAUAUUACGCGGC | -3.26 ± 0.22 | -2.43 ± 0.22
CCGCAGCAAUAUUACGAAUU | -3.73 ± 0.19 | -2.51 ± 0.2
CAAUAGCAAUAUUACGUCCU | -3.78 ± 0.42 | -2.4 ± 0.28
ACUAAGCAAUAUUACGGACA | -0.625 ± 0.094 | -0.362 ± 0.12
